What follows are sequences tested on Escherichia coli TOP10 (assay: shrunken log2 fold change of peptide-encoding DNA abundance (4.5 h post-induction vs induction); higher = less antimicrobial activity (less host growth inhibition)). Details: time post-induction: 4.5 h; library: site-saturation at positions 5, 18, 19, 20.
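Also: peptides expressed intracellularly from a pBAD plasmid library in pooled LB shake-flask culture, induced with 0.3% L-arabinose, DNA abundance read by NGS, three biological replicates, DESeq2 with apeglm shrinkage.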

Sequence | shrunken log2 fold change
RRIRFRPPRLPRPRPRPFVFPRP | -0.454
RRIRHRPPRLPRPRPRPQYTPRP | -1.27
RRIRGRPPRLPRPRPRPKRNPRP | 0.624
RRIRKRPPRLPRPRPRPLGQPRP | 0.991
RRIRKRPPRLPRPRPRPTNSPRP | -0.241
RRIRQRPPRLPRPRPRPFAWPRP | -0.0355
RRIRVRPPRLPRPRPRPKFVPRP | 0.11
RRIRSRPPRLPRPRPRPQKVPRP | -0.203
RRIRTRPPRLPRPRPRPYLIPRP | -0.183
RRIRARPPRLPRPRPRPMRVPRP | 0.789
RRIRHRPPRLPRPRPRPQTRPRP | -0.148
RRIRNRPPRLPRPRPRPLWWPRP | 0.605
RRIRFRPPRLPRPRPRPCRHPRP | 0.0121
RRIRTRPPRLPRPRPRPMHAPRP | -0.112
RRIRRRPPRLPRPRPRPQLMPRP | 0.247
RRIRGRPPRLPRPRPRPRTKPRP | 0.942
RRIRQRPPRLPRPRPRPNEDPRP | 0.031
RRIRDRPPRLPRPRPRPTSWPRP | 0.989
RRIRIRPPRLPRPRPRPADPPRP | -0.071
RRIRDRPPRLPRPRPRPYLSPRP | -0.102
RRIRSRPPRLPRPRPRPEGWPRP | 1.18
RRIRCRPPRLPRPRPRPPTLPRP | -0.0423
RRIRGRPPRLPRPRPRPMCVPRP | 0.723
RRIRMRPPRLPRPRPRPDVHPRP | 0.109
RRIRERPPRLPRPRPRPQQLPRP | -0.178

Sequence | shrunken log2 fold change
RRIRQRPPRLPRPRPRPCDLPRP | -0.265
RRIRYRPPRLPRPRPRPRKFPRP | -1.72
RRIRGRPPRLPRPRPRPWMYPRP | -0.0352
RRIRLRPPRLPRPRPRPMDHPRP | -0.00264
RRIRCRPPRLPRPRPRPGFKPRP | -0.226
RRIRWRPPRLPRPRPRPQWYPRP | -0.28
RRIRYRPPRLPRPRPRPNYIPRP | -1.2
RRIRLRPPRLPRPRPRPQRNPRP | -0.789
RRIRGRPPRLPRPRPRPMTKPRP | 0.524
RRIRARPPRLPRPRPRPWRIPRP | -0.0489
RRIRFRPPRLPRPRPRPFLWPRP | -0.0874
RRIRVRPPRLPRPRPRPQYGPRP | -0.0699
RRIRWRPPRLPRPRPRPNSFPRP | -0.0131
RRIRWRPPRLPRPRPRPDCQPRP | -0.00822
RRIRNRPPRLPRPRPRPAAGPRP | 0.698
RRIRCRPPRLPRPRPRPWDPPRP | -0.211
RRIRFRPPRLPRPRPRPPDRPRP | 0.128
RRIRIRPPRLPRPRPRPSYGPRP | -0.53
RRIRCRPPRLPRPRPRPNAQPRP | 0.164
RRIRFRPPRLPRPRPRPMKFPRP | -0.681
RRIRMRPPRLPRPRPRPTVCPRP | 0.53
RRIRARPPRLPRPRPRPMMMPRP | 0.246
RRIRQRPPRLPRPRPRPHKDPRP | -0.105
RRIRCRPPRLPRPRPRPAFQPRP | 0.0486
RRIRHRPPRLPRPRPRPIMTPRP | -0.895

Sequence | shrunken log2 fold change
RRIRPRPPRLPRPRPRPCMMPRP | -0.467
RRIRSRPPRLPRPRPRPMWEPRP | 0.0252
RRIRIRPPRLPRPRPRPPFNPRP | -0.473
RRIRVRPPRLPRPRPRPVVMPRP | -0.271
RRIRSRPPRLPRPRPRPCCNPRP | -0.0171
RRIRCRPPRLPRPRPRPPMIPRP | -0.0902
RRIRGRPPRLPRPRPRPAETPRP | -0.0775
RRIRMRPPRLPRPRPRPSEVPRP | 0.159
RRIRHRPPRLPRPRPRPFFYPRP | -0.4
RRIRDRPPRLPRPRPRPRREPRP | 0.281
RRIRVRPPRLPRPRPRPKLFPRP | 0.0793
RRIRTRPPRLPRPRPRPRHFPRP | -0.085
RRIRTRPPRLPRPRPRPPQLPRP | 0.0198
RRIRTRPPRLPRPRPRPIKWPRP | 0.0186
RRIRQRPPRLPRPRPRPIGEPRP | -0.0171
RRIRIRPPRLPRPRPRPVQEPRP | 0.00511
RRIRVRPPRLPRPRPRPYGQPRP | -0.0728
RRIRRRPPRLPRPRPRPYSYPRP | -0.0587
RRIRHRPPRLPRPRPRPAITPRP | -0.0845
RRIRDRPPRLPRPRPRPQNAPRP | -0.111
RRIRMRPPRLPRPRPRPYPNPRP | -0.021
RRIRVRPPRLPRPRPRPFASPRP | 0.0656
RRIRTRPPRLPRPRPRPRPRPRP | 0.81
RRIRSRPPRLPRPRPRPKKIPRP | 0.139
RRIRVRPPRLPRPRPRPMQHPRP | 0.0443

Sequence | shrunken log2 fold change
RRIRLRPPRLPRPRPRPARQPRP | 0.281
RRIRKRPPRLPRPRPRPIFSPRP | -0.143
RRIRLRPPRLPRPRPRPLLPPRP | 0.368
RRIRDRPPRLPRPRPRPPLPPRP | 0.737
RRIRYRPPRLPRPRPRPHPHPRP | -0.744
RRIRPRPPRLPRPRPRPIGDPRP | -0.0205
RRIRLRPPRLPRPRPRPAMRPRP | 0.28
RRIRQRPPRLPRPRPRPHFRPRP | 0.092
RRIRRRPPRLPRPRPRPSACPRP | 0.195
RRIRNRPPRLPRPRPRPYMRPRP | -0.597
RRIRSRPPRLPRPRPRPSALPRP | -0.0202
RRIRGRPPRLPRPRPRPLFYPRP | 0.257
RRIRSRPPRLPRPRPRPRKNPRP | -0.0439
RRIRFRPPRLPRPRPRPWNGPRP | 0.228
RRIRVRPPRLPRPRPRPNVAPRP | 0.177
RRIRIRPPRLPRPRPRPYVYPRP | -0.144
RRIRIRPPRLPRPRPRPAQKPRP | -0.00244
RRIRIRPPRLPRPRPRPKQSPRP | -0.384
RRIRSRPPRLPRPRPRPSVKPRP | -0.068
RRIRRRPPRLPRPRPRPDDGPRP | -0.147
RRIRQRPPRLPRPRPRPNWPPRP | 0.192
RRIRSRPPRLPRPRPRPFHFPRP | -0.308
RRIRWRPPRLPRPRPRPIKWPRP | -0.18
RRIRNRPPRLPRPRPRPAEPPRP | -0.00965
RRIRARPPRLPRPRPRPKWHPRP | 0.235

Sequence | shrunken log2 fold change
RRIRRRPPRLPRPRPRPAQYPRP | 0.34
RRIRRRPPRLPRPRPRPQYTPRP | -0.221
RRIRYRPPRLPRPRPRPRGFPRP | -0.0875
RRIRHRPPRLPRPRPRPDLHPRP | -0.0566
RRIRARPPRLPRPRPRPDEKPRP | 0.447
RRIRQRPPRLPRPRPRPHYYPRP | -0.0332
RRIRSRPPRLPRPRPRPVLVPRP | 0.242
RRIRNRPPRLPRPRPRPDGWPRP | 0.235
RRIRDRPPRLPRPRPRPFVLPRP | 0.045
RRIRKRPPRLPRPRPRPFCQPRP | 0.212
RRIRQRPPRLPRPRPRPTFQPRP | 0.00826
RRIRARPPRLPRPRPRPGHNPRP | -0.0862
RRIRDRPPRLPRPRPRPGVNPRP | 0.148
RRIRDRPPRLPRPRPRPKISPRP | -0.203
RRIRQRPPRLPRPRPRPHILPRP | -0.361
RRIRKRPPRLPRPRPRPSNDPRP | 0.257
RRIRRRPPRLPRPRPRPRMVPRP | 0.218
RRIRWRPPRLPRPRPRPYCWPRP | -0.127
RRIRERPPRLPRPRPRPHYYPRP | -0.83
RRIRGRPPRLPRPRPRPHMYPRP | -0.0997
RRIRVRPPRLPRPRPRPTARPRP | 0.293
RRIRWRPPRLPRPRPRPYIIPRP | -1.11
RRIRWRPPRLPRPRPRPIPDPRP | -0.0879
RRIRNRPPRLPRPRPRPVHEPRP | -0.00149
RRIRHRPPRLPRPRPRPCACPRP | -0.176

Sequence | shrunken log2 fold change
RRIRHRPPRLPRPRPRPFRGPRP | -0.254
RRIRIRPPRLPRPRPRPYKTPRP | -0.0104
RRIRGRPPRLPRPRPRPHLWPRP | 0.942
RRIRFRPPRLPRPRPRPWKHPRP | -0.587
RRIRSRPPRLPRPRPRPIIKPRP | 0.18
RRIRDRPPRLPRPRPRPTVCPRP | 0.662
RRIRARPPRLPRPRPRPMFTPRP | -0.0981
RRIRPRPPRLPRPRPRPHIGPRP | 0.0387
RRIRPRPPRLPRPRPRPKHPPRP | 0.995
RRIRNRPPRLPRPRPRPCYSPRP | -0.596
RRIRVRPPRLPRPRPRPSSVPRP | -0.529
RRIRLRPPRLPRPRPRPKWQPRP | -0.0304
RRIRRRPPRLPRPRPRPIVKPRP | -0.0348
RRIRIRPPRLPRPRPRPQGVPRP | -0.0375
RRIRARPPRLPRPRPRPRSMPRP | 0.42
RRIRLRPPRLPRPRPRPGFDPRP | 0.137
RRIRHRPPRLPRPRPRPKMKPRP | -0.232
RRIRNRPPRLPRPRPRPTKPPRP | 0.24
RRIRTRPPRLPRPRPRPQIKPRP | -0.0374
RRIRQRPPRLPRPRPRPTIRPRP | -0.219
RRIRVRPPRLPRPRPRPSPDPRP | -0.226
RRIRDRPPRLPRPRPRPPQTPRP | 0.115
RRIRSRPPRLPRPRPRPLYLPRP | -0.212
RRIRARPPRLPRPRPRPFNNPRP | -0.688
RRIRRRPPRLPRPRPRPQCIPRP | -0.0103

Source: the supplement of paper PMC9112550, “Optimization of the antimicrobial peptide Bac7 by deep mutational scanning” (BMC Biology, 2022)
